Experiment [1] has as its target T1, C5a receptor (Homo sapiens, UniProt P21730).
T1 construct: Neutrophils were purified from human peripheral blood; endogenous in cells; host or cells: neutrophils from human peripheral blood
T1 sequence (P21730 1-350): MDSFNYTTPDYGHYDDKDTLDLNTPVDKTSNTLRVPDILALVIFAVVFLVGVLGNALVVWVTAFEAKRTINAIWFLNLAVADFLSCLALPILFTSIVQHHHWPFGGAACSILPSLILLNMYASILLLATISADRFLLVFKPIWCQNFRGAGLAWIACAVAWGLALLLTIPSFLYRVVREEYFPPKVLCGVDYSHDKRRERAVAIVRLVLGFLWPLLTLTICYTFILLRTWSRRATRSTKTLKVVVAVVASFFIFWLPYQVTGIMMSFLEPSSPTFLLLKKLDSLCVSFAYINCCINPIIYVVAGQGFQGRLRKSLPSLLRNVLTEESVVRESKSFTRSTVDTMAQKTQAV
Description: Receptor binding assay: displacement of [125I]Bolton-Hunter-labelled C5a from PMNL membranes. The settings on record: Table 4, [125I]BH-C5a 4.0 pM, 120 min at 4° C., Cheng-Prusoff. On the procedure:
C5a and C5a receptor antagonists were tested for their affinity for the C5a receptor. […] PMNLs were resuspended in Hanks balanced salt solution, without Ca^++ and Mg^++ and which contained 10 mM HEPES; at pH 7.3, 2.5 mM MgCl2, 100 units/ml DNAse I, 0.1 mM PMISF, 10 μg/ml aprotonin and 10 μg/ml leupeptin. They were then equilibrated at 400 psi for 20 min at 4° C. in a nitrogen cavitation bomb. After evacuation into 3 volumes 0.5 M KHCO3 containing 25 mM EDTA and the protease inhibitors listed above, the gelatinous material was removed with forceps and the mixture was centrifuged at 400×g for 10 min at 4° C. The resulting supernatant was centrifuged at 50,000×g for 60 min at 4° C. The pellets from the aliquots representing 200×10^6 cells were stored at -70° C. For binding studies, these membranes were resuspended at an equivalent of 20×10^6 cells/ml in 50 mM HEPES at pH 7.3, containing 1 mM CaCl2, 5 mM MgCl2, 0.1 mM PMSF, 0.1% bacitracin and 0.5% BSA.
Nonspecific binding was determined in the presence of 10 nM unlabelled C5a. The binding reaction was initiated by the addition of the PMNL membranes and was continued for 120 min at 4° C. Bound and free radioactivity were separated by vacuum filtration through GF/C glass fiber filters (Whatman), pretreated for 90 min with 0.05% PEI (polyethyleneimine) using a Cell Harvester (Brandel, Gaithersburg, Md.). Filters were washed with 3×5 ml of ice-cold 5 mM Tris buffer at pH 7.4 and counted in a multiwell Gamma counter (Genesys). Data were analyzed using the non-linear regression analysis program, RS/1 (Bolt, Beranek and Newman, Boston) and expressed as IC50 values. The results are set forth below in Table 4 as Ki values using the Cheng-Presoff equation. See Braunwalder et al., supra
For orientation: Displacement assays read how much labelled ligand stays bound in the presence of the test substance.

Experiment [2] has as its target T1, C5a receptor. Description: C5a induced Ca++ rise in fura-2 loaded neutrophils (antagonist IC50 / agonist EC50). It is filed as cell-based. The settings on record: highest concentration tested; agonist activity was not detected. An excerpt: The antagonism of the instant C5a analogues may be quantified as an IC50 in the calcium rise assay disclosed in Agents and Actions 21:375-378 (1987), described in detail in Example 7.
See Hugli et al., CRC Crit. Rev. Immunol. 1:321-326 (1981) and PCT WO 92/10205. A quantitative measure of this property may also be obtained using the calcium rise assay disclosed in Seligmann et al., supra, also described in Example 7. EC50 is a measure of agonistic activity. […] Applicants have not detected agonist activity of the instant C5a analogues up to a concentration of at Least about 8.0×10^-7 M, and preferably at least about 3.0×10^-6 M in the same calcium rise assay.
Recombinant human C5a was dissolved in Hanks buffer containing 0.01% Tween-20, and all stock dilutions of C5a were made in this buffer. The acetoxymethyl ester of fura-2 (fura 2AM, Molecular Probes) was dissolved in DMSO. Neutrophils were purified from human peripheral blood by sedimentation in 6% hetastarch (HESPAN, DuPont, Waukegan, Ill.), followed by counter flow elutriation as described in Chapman-Kirkland et al., J. Immunol. Meth. 142:95-104 (1991). Purified cells (2×10^6 /ml) were mixed with 0.2 uM fura- 2AM and incubated for 30 min at 37° C. in HEPES buffered Hanks solution without calcium or magnesium. Fifteen minutes before the assay, the cell suspension was transferred to a curvette containing a stir bar and calcium was added to 1 mM. The cell suspension was incubated with stirring at 37° C. Assays were terminated within 5 h of cell purification and a standard control response was obtained periodically to insure that the cell responses were not changing over the time of the experiment. The amount of fluorescence was determined using an SLM 8000 spectrofluorometer (SLM-Aminco Instruments, Urbana, Ill.). Curvettes were placed in the fluorometer and after obtaining a baseline for 10 sec, the C5a receptor antagonists to be tested for antagonistic properties were added and any change in fluoresence excitation ratio of 340 nm/380 nm (emission of 510 nm) was measured. Forty seconds after analogue addition, a challenge dose of C5a was added to a final concentration of 100 pM and the resulting change in excitation ratio was measured.
IC50 values were used as a measure of antagonist potency. These values are defined as the concentration of C5a analogue needed to reduce the calcium rise response of the 100 pM C5a challenge dose by 50%. EC50 values were used as a measure of agonist potency. […]

In experiment [3] the test system is New Zealand White rabbits (C5a-induced enhancement in vascular permeability). Description: Rabbit dermal model of inflammation ([125I]-BSA exudation after intradermal C5a). It is filed as in vivo. The protocol: All experiments were performed on male New Zealand White rabbits weighing 2.5-3.0 kg. The backs; of the rabbits were shaved and 40-50 skin sites were designated with markers of different colors. Different stimuli (i.e., C5a, C5a analogue, C5a+C5a analogue, vehicle control, etc.) were injected intradermally at 0.1 ml/site using a sterile, disposable, 26 gauge, 0.5 in. needle and 1.0 cc tuberculin syringe. I.D. injections were administered in replicates of six, roughly 45 minutes before euthanization. C5a alone was injected at a dose of 50 ng/site, and the C5a receptor antagonists were co-injected at various concentrations with the same dose of C5a. At 20 minutes prior to euthanization, 18-36 uCi of [125I]-labeled bovine serum albumin in 1.0 ml physiological saline were introduced into the systemic circulation via the marginal auricular vein. At 45 minutes, the rabbit was euthanized with an I.V. overdose of sodium pentobarbital. […]
After death, the dorsal skin was excised and pinned to a wooden dissecting board. […] This procedure reduced variation among skin sites and decreased background radioactivity. […] Injection sites were then analyzed for their radioactive content using a Gamma Counter (Genesys).

The test system of experiment [4] is New Zealand White rabbits (C5a-induced neutropenia). Description: C5a-induced neutropenia in the rabbit. It is filed as in vivo. The following applies: i.v. bolus; for Inhibition of C5a-induced neutropenia vs vehicle-treated rabbits: 100 ng C5a i.v. The protocol:
All experiments were performed on male New Zealand White rabbits weighing 2.5-3.0 kg. Rabbits were anesthetized with 10 mg/kg xylazine and 50 mg/kg ketamine administered in combination intramuscularly. A 25 gauge butterfly catheter was inserted in the lateral ear vein to use for infusions. Each blood sample (0.2 ml) was collected from the central ear artery into a plastic syringe fitted with a 25 gauge, 5/8 inch needle and charged with 7.5% EDTA as an anticoagulant. Blood was immediately expressed into a microcentrifuge tubes containing 10 microliters of 7.5% EDTA. An initial arterial blood sample (#1) was obtained and immediately thereafter vehicle or the C5a analogue of Example 8 was infused intravenously (bolus injection). Twenty seconds later, a second blood sample (#2) was obtained and twenty seconds thereafter 100 ng of C5a in 0.2 ml were infused intravenously (bolus injection). Twenty seconds later, a third blood (#3) sample was taken. Thirty minutes later, a second round of blood sample (#4)--20 seconds--C5a infusion--20 seconds--blood sample (#5) was performed. Blood samples were evaluated by automated hematologic analysis (Technicon H*1) using software specific for rabbit blood. Reductions in neutrophil counts (number per milliliter) induced by C5a(C5a-induced neutropenia, determined by comparing blood sample #3 to #2 and #5 to #4) were compared between vehicle-treated and C5a analogue-treated animals.

Where only a bound is given, the exact number is not on record here.

A word on the Ki: it is the equilibrium dissociation constant of an inhibitor or competing ligand from its target. High values mean lower affinity, low ones higher affinity.

B1: C5a(1-71,T1M,C27S,Q71C) (protein, UniProt P01031 678-748, looked up, fragment T1M C27S Q71C)
chain: MLQKKIEEIAAKYKHSVVKKCCYDGASVNNDETCEQRAARISLGPRCIKAFTECCVVASQLRANISHKDMC
modifications: C5a anaphylatoxin
As for B1, in experiment [1], the Ki came out at 0.2 nM. Besides, the “Concentration up to which tested and agonist activity not detected (calcium rise)” value in experiment [2] was more than 3 µM. Moreover, the “ID50 (50% reduction in the radioactivity produced by C5a)” value in experiment [3] (intradermal co-injection with 50 ng C5a/site) is given as 70 ng/site. Further, the “Pro-inflammatory reaction (agonist properties in vivo)” value in experiment [3] (intradermal, 175 ng/site) is on record as “did not cause a pro- inflammatory reaction”. In addition, the “Inhibition of C5a-induced neutropenia vs vehicle-treated rabbits” value came out at 41% in experiment [4] (30-minute C5a challenge interval) and 67% in experiment [4] (40-second C5a challenge interval). In experiment [4] (before C5a challenge), the “Effect on baseline neutrophil counts (agonistic, C5a-like properties)” value is recorded as “did not alter baseline neutrophil counts from normal”.

The record behind these values is patent US5837499A, “DNA encoding C5A receptor antagonists having substantially no agonist activity and methods of expressing same” (priority 1995, dated 1998).
